According to patent publication US20120302506A1:

Molecular target: Human uPA (Chemicon) (human) (UniProt P00749)
Assay: cell-based or functional assay

Sequence of Glutathione S-transferase (GST)-tagged maspin (GST-maspin), bacterial recombinant (P08515 whole entry): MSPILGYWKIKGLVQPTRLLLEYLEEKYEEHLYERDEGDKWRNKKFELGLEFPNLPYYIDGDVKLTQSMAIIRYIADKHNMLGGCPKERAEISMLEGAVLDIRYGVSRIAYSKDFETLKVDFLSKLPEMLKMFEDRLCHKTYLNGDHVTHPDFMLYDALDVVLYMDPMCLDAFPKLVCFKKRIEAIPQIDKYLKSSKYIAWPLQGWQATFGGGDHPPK

A maspin-mediated adhesion of uPA-stripped MCF0A cells resupplied with exogenous uPA (800 nM) (% of GST control) of 154 was found for “Glutathione S-transferase (GST)-tagged maspin (GST-maspin), bacterial recombinant (from UniProt P08515 1-218)” in this work.
